Reference: the RNAGym collection of RNA variant scans (doi:10.7554/elife.90254)

B1: OR4K15 (parent)
chain: GUUAACGGUCAUAGGCCAUGGAAACUAGGAGCACCAUUUCGCUGCCAGUGAAGAAAUGAACAAAGAAAAUCUGGGCCAGGCAGGCAUCAAAAGAAAUAGUCUUGCGCUCAACCAGAAAGUCUGUAAUCAUUUUAAGGGUA

Variants of: B1
Assay: self-cleavage, relative activity (ratio to wild type); higher = more cleavage; in vitro, sequencing; the parent is a self-cleaving ribozyme

Variant | self-cleavage
GUUAACGGUCAUAGGCCAUGGAAACUAGGAGCACCAUUUCGCUGCCAGUGAAGAAAUGAACAAAGAAAAUCUGGGCCAGGCAGGCAUCAAAAGAGAUAGUCUUGCGCUCAACCAGAAAGUCUGUAAUCAUUUUAAAGGUA | 2
GUUAACGGUCAUUGGCCAUGGAGACUAGGAGCACCAUUUCGCUGCCAGUGAAGAAAUGAACAAAGAAAAUCUGGGCCAGGCAGGCAUCAAAAGAAAUAGUCUUGCGCUCAACCAGAAAGUCUGUAAUCAUUUUAAGGGUA | 1.43
GUUAACGGUCAUAGGCCAUGGAAACUAGGAGCCCCAUUUCGCUGCCAGUGAAGAAAUGAACAGAGAAAAUCUGGGCCAGGCAGGCAUCAAAAGAAAUAGUCUUGCGCUCAACCAGAAAGUCUGUAAUCAUUUUAAGGGUA | 1.98
GUUAACGGUCAUAGGCCAUGGAAACUAGGAGCACCAUUUCGCUGCCAGUGAAGAAAUGAACAAAGAAAAUCUGGGCCAGGCAGGCAUCAAAAGAAAUAGUCUUGCGCUCAACCGGAAAGUCUGUAAUCAUUUUAAGGGCA | 0.32
GUUAACGGUCGUAGGCCAUGGAAACUAGGAGCACCAUUUCGCUGCCAGUGAAGAAAUGAACAAAGAAAAUCUGGGCCAGGCAGGCAUCAAAAGAAAUAGUCUAGCGCUCAACCAGAAAGUCUGUAAUCAUUUUAAGGGUA | 0.77
GUUAACGGUCAUAGGCCAUGGAAACUAGGAGCACCAUUUCGCUGCCAGUGAAGAAAUGAACAAAGAAAAUCUGGGCCAGGCAGGCAUCAAAAGUAAUAGUCUUGCGCUCAACCAGAAAGUCUGUAAUCUUUUUAAGGGUA | 1.22
GUUAACGGUCAUAGGCCAUGGAAACUAGGAGCACCAUUUCGCUGCCAGUGAAGAAAUGAACAAGGAAAAUCUGGGCUAGGCAGGCAUCAAAAGAAAUAGUCUUGCGCUCAACCAGAAAGUCUGUAAUCAUUUUAAGGGUA | 1.43
GUUAACGGUCAUAGGCCAUGGAAACUAGGAGCACCAUUUCGCUGCCAGUGAAGAAAUGAACAAAGAAAAUCUGGGCCAGGCAGGCAUCAAAAGAAAUAGUCUUGCGCUCAACCAGAAAGUCUGAAAUCAUUUUAAGGGUA | 0.69
GUUAACGGUCAUAGGCCACGGAAACUAGGAGCACCAUUUCGCUGCCAGUGAAGAAAUGAACAAAGAAAAUCUGGGCCAGCCAGGCAUCAAAAGAAAUAGUCUUGCGCUCAACCAGAAAGUCUGUAAUCAUUUUAAGGGUA | 0.1
GUUAACGGUCAUAGGCCAUGGAAACUAGGAGCACCAUUUCGCUGCCAGUGAAGAAAUGAACGAAGAAAAUCUGGGCCAGGCAGGCAUCAAAAGAAAUAGUCUUGCGCUCAACCAGAAAGUCUGUAAUCGUUUUAAGGGUA | 1.09
GUUGACGGUCAUAGGCCAUGGAAACUAGGAGCACCAUUUCGCUGCCAGUGAAGAAAUGAACAAAGAAAAUCUGGGCCAGGCAGGCAUCAAAAGAAAUAGUCUUGCGCUCAACCAGAAAGUCUGUAAUCAUUUUAAGGGCA | 1.21
GUUAACGGUCAUAGGCCAUGGAAACUAGGAGCACCAUUUCGCUGCCAGUGAAGAAAUGAACAAAGAAGAUCUGGGCCAGGCAGGCAUCAAAAGAAAUAGUCUUGCGCUCUACCAGAAAGUCUGUAAUCAUUUUAAGGGUA | 1.49
GUUAACGGUCAUCGGCCAUGGAAACUAGGAGCACCAUUUCGCUGCCAGUGAAGAAAUGAACAAAGAAAAUCUGGGCCAGGCAGGCAUCAAAAGAAAUAGUCUUGCGCUCAACCAGAAAGUCUGUAAUCAUUUUAAGGGCA | 1.48
GUUAACGGUCAUAGGCCAUGGAAACUAGGAGCACCAUUUCACUGCCAGUGAAGAAAUGAACAAAGAAAAUCUGGGCCAGGCAGGCGUCAAAAGAAAUAGUCUUGCGCUCAACCAGAAAGUCUGUAAUCAUUUUAAGGGUA | 1.05
GUUAACGGUCAUAGGCCAUGGAAACUAGGAGCACCAUUUCGCUGCCAGUGAAGAAAUGAACAAAGAAAAUCUGGGCCAGGCAGGCAUCAAAAGAAAUAGUCUUGCGCUCAACCGGAAAGUCUGUAACCAUUUUAAGGGUA | 0.11
GCUAACGGUCAUAGGCCAUGGAAACUAGGAGCACCAUUUCGCUGCCAGUGUAGAAAUGAACAAAGAAAAUCUGGGCCAGGCAGGCAUCAAAAGAAAUAGUCUUGCGCUCAACCAGAAAGUCUGUAAUCAUUUUAAGGGUA | 0.82
GUUAACGGUCAUAGGGCAUGGAAACUAGGAGCACCAUUUCGCUGCCUGUGAAGAAAUGAACAAAGAAAAUCUGGGCCAGGCAGGCAUCAAAAGAAAUAGUCUUGCGCUCAACCAGAAAGUCUGUAAUCAUUUUAAGGGUA | 0.8
GUUAACGGUCAUAGGCCAUGGAAACUAGGAGCACCAUCUCGCUGCCAGUGAAGAAAUGAACAAAGAAAAUCUGGGCCAGGCAGACAUCAAAAGAAAUAGUCUUGCGCUCAACCAGAAAGUCUGUAAUCAUUUUAAGGGUA | 2.05
GUUAACGGUCAUAGGCCAUGGAAACUAGGAGCCCCAUUUCGCUGCCAGUGGAGAAAUGAACAAAGAAAAUCUGGGCCAGGCAGGCAUCAAAAGAAAUAGUCUUGCGCUCAACCAGAAAGUCUGUAAUCAUUUUAAGGGUA | 1.64
GUUAACGGUCAUAGGCCAUGGAAACUAGGAGCACCAUUUCGCUGCCAGUGAAGAAAUGAACAAAGAAAAUCUGGGGCAGGCAGGCAUCAAAAGAAAUAGUCUUGCGCUCAACCAGAAAGUUUGUAAUCAUUUUAAGGGUA | 0.08
GUUAACGGUCAUAGGCCAUGGAAACUAGGAGCACCAUUUCGCUGCCAGUGAAGAAAUGAACAAGGAAAAUCUGGGCCAGGCAGGCAUCAAAAGAAAUAGUCUUGCGCUCAACCAGAAAGUCUGUAAUCAUUUUGAGGGUA | 1.41

Variant | self-cleavage
GUUAAUGGUCAUAGGCCAUGGAAACUAGGAGCACCACUUCGCUGCCAGUGAAGAAAUGAACAAAGAAAAUCUGGGCCAGGCAGGCAUCAAAAGAAAUAGUCUUGCGCUCAACCAGAAAGUCUGUAAUCAUUUUAAGGGUA | 1.08
GUUAACGGUCAUUGGCCAUGGAAACUAGGAGCACCAUCUCGCUGCCAGUGAAGAAAUGAACAAAGAAAAUCUGGGCCAGGCAGGCAUCAAAAGAAAUAGUCUUGCGCUCAACCAGAAAGUCUGUAAUCAUUUUAAGGGUA | 0.61
GUUAACGGUCAUAGGCCAUGGAAACUAGGAGCACCAUUUCGCUGCCAGUGAAGAAAUGAACAAAGAAAAUCUGGGCCAGGCAGGCAUCAAAAGAGAUAGUCUUGUGCUCAACCAGAAAGUCUGUAAUCAUUUUAAGGGUA | 0.43
GUUAACGGUCAUAGGCCAUGGAAACUAGGAGCACCAUUUCGCUGCCAGUGAAGAAAUGAACAAAGAAAGUCUGGGCCAGGCAGGCAUCAAAAGAAAUGGUCUUGCGCUCAACCAGAAAGUCUGUAAUCAUUUUAAGGGUA | 0.49
GUUAACGGUCCUAGGCCAUGGAAACUAGGAGCACCAUCUCGCUGCCAGUGAAGAAAUGAACAAAGAAAAUCUGGGCCAGGCAGGCAUCAAAAGAAAUAGUCUUGCGCUCAACCAGAAAGUCUGUAAUCAUUUUAAGGGUA | 1.72
GUUAUCGGUCAUAGGCCAUGGAAACUAGGAGCACCAUUUCGCUGCCAGUGAAGAAAUGAACAAAGAAAAUCUGGGCCAGGCAGGCAUCAAAAGAAAUAGUCUUGCGCUCAACCAGGAAGUCUGUAAUCAUUUUAAGGGUA | 1.13
GUUAACGGUCAUAGGCCAUGGAAACUAGGAGCACCAUUUCACUGCCAGUGAAGAAAUGAACAAAGAAAAUCUGGGCCAGGCAGGCAUCGAAAGAAAUAGUCUUGCGCUCAACCAGAAAGUCUGUAAUCAUUUUAAGGGUA | 2.8
GUUAACGGUCAUAGGCCAUGGAAACUAGGAGCACCAUUUCGCUGCCAGUGAAGAAAUGAACAAAGAAAAUCUGGGCCAGGCAGGCAUCAAAAGGAAUAGUCUUGCGCUCAACCAGAAAGUCUGUACUCAUUUUAAGGGUA | 0.82
GUUAACGGUCAUAGGCCAUGGAAACUAGGAGCACCAUUUCGCUGCCAGUGAAGAAAUGAACAAAGAAAUUCUGGGCCAGGCAGGCAUCAAAAGAAAUAGUCUUGCGCUCAACCAGAAAGUCUGUAAUCAUUCUAAGGGUA | 1.11
GUUAACGGUCAUAGGCCAUGGAAACUAGGAGCACCAUUUCGCUGCCAGUGAAGAAAUGAACAAAGAAAAUCUGGGCCAGGCAGGCACCAAAAGAAAUAGUCUUGCGCUCAACCAGAAAGUCUGUAAUCAUUUCAAGGGUA | 1.4
GUUAACGGUCAUAGGCCAUGGAAACUAGGAGCACCAUUUCACUGCCAGUGAAGAAAUGAACAAAGAAAAUCUGGGCCAGGCAGGCAUCAAAAGAAAUAGUCUUGCGCUCCACCAGAAAGUCUGUAAUCAUUUUAAGGGUA | 0.4
GUUAACGGUCAUAGGCCAUGGAAACUAGGAGCACCAUUUCGCUGCCAGUGAAGAAAUGAACCAAGAAAAUCUGGGCCAGGCAGGCACCAAAAGAAAUAGUCUUGCGCUCAACCAGAAAGUCUGUAAUCAUUUUAAGGGUA | 1.51
GUUAACGGUCAUAGGCCAUGGAAACUAGGGGCACCAUUUCGCUGCCAGUGAAGAAAUGAACAAAGAAAAUCUGGGCCAGGCAGGCAUCAAAAGAGAUAGUCUUGCGCUCAACCAGAAAGUCUGUAAUCAUUUUAAGGGUA | 0.44
GUUAACGGUCAUAGGCCAUGGAAACUAGGAGCACCAUUUCGCUGCCAGUGAAGAUAUGAACAAAGAAAAUCUGGGCCAGGCAGGCAUCAAAAGGAAUAGUCUUGCGCUCAACCAGAAAGUCUGUAAUCAUUUUAAGGGUA | 1.59
GUUAACGGUCAUAGGCCAUGGAAGCUAGGAGCACCAUUUCUCUGCCAGUGAAGAAAUGAACAAAGAAAAUCUGGGCCAGGCAGGCAUCAAAAGAAAUAGUCUUGCGCUCAACCAGAAAGUCUGUAAUCAUUUUAAGGGUA | 1.18
GUUAACGGUCAUAGGCCAUGGAAACUAGGAGCACCAUUUCGCUGCCAGUGAAGAAAUGAACAAAGAAAAUCUGGGCCUGGCAGGCAUCAAAAGAAAUAGUCUUGCGCUCAACCAGAAAGUCUGUAAUCAUUUUAAGGAUA | 0.36
GUUAACGGUCAUAGGCCAUGGAAACUAGGAGCACCAUUUCGCUGCCAGUGAAGAAAUGAACAAAGAAAAUCUGGGCCAGGCAGGCAUCCAAAGAAAUAGUCUUGCGCUCAACCAGAAAGUCCGUAAUCAUUUUAAGGGUA | 1.75
GUCAACGGUCAUAGGCCAUGGAAACUAGGAGCACCAUUUCGCUGCCAGUGAAGAAAUGAACAAAGAAAAUCUGGGCCAGGCAGGCAUCAAAAGAAAUAGUCUAGCGCUCAACCAGAAAGUCUGUAAUCAUUUUAAGGGUA | 0.64
GUUAACGGUCAUAGGCCAUGGAAACUAGGGGCACCAUUUCGCUGCCAGUGAAGAAAUGGACAAAGAAAAUCUGGGCCAGGCAGGCAUCAAAAGAAAUAGUCUUGCGCUCAACCAGAAAGUCUGUAAUCAUUUUAAGGGUA | 1.5
GUUAACGGUCAUAGGCCAUGAAAACUAGGAGCACCAUUUCGCUGCCAGUGAAGAAAUGAACAAAGAAAAUCUGGGCCAGGCAGGCUUCAAAAGAAAUAGUCUUGCGCUCAACCAGAAAGUCUGUAAUCAUUUUAAGGGUA | 2.01
